# B1: 26S proteasome non-ATPase regulatory subunit 4 (Homo sapiens), P55036 (parent)
# chain: MVLESTMVCVDNSEYMRNGDFLPTRLQAQQDAVNIVCHSKTRSNPENNVGLITLANDCEVLTTLTPDTGRILSKLHTVQPKGKITFCTGIRVAHLALKHRQGKNHKMRIIAFVGSPVEDNEKDLVKLAKRLKKEKVNVDIINFGEEEVNTEKLTAFVNTLNGKDGTGSHLVTVPPGPSLADALISSPILAGEGGAMLGLGASDFEFGVDPSADPELALALRVSMEEQRQRQEEEARRAAAASAAEAGIATTGTEDSDDALLKMTISQQEFGRTGLPDLSSMTEEEQIAYAMQMSLQGAEFGQAESADIDASSAMDTSEPAKEEDDYDVMQDPEFLQSVLENLPGVDPNNEAIRNAMGSLASQATKDGKKDKKEEDKK
# partner: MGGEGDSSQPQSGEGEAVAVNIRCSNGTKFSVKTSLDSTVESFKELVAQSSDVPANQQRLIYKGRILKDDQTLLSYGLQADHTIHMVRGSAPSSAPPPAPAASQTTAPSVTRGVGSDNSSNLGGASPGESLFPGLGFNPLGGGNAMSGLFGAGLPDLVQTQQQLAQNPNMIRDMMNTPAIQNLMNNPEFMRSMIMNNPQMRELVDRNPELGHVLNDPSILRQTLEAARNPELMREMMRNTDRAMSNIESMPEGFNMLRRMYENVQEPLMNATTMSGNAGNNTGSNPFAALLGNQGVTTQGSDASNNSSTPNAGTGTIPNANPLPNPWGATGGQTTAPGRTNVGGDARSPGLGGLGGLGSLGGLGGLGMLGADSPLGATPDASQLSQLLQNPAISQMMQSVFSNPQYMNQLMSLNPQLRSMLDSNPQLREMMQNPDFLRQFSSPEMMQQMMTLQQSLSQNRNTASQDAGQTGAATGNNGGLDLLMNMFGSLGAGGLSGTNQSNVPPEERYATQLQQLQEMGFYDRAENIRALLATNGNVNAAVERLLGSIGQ
# B2: 26S proteasome non-ATPase regulatory subunit 4 homolog (Arabidopsis thaliana (Mouse-ear cress)), P55034 (parent)
# chain: MVLEATMICIDNSEWMRNGDYSPSRLQAQTEAVNLLCGAKTQSNPENTVGILTMAGKGVRVLTTPTSDLGKILACMHGLDVGGEINLTAAIQIAQLALKHRQNKNQRQRIIVFAGSPIKYEKKALEIVGKRLKKNSVSLDIVNFGEDDDEEKPQKLEALLTAVNNNDGSHIVHVPSGANALSDVLLSTPVFTGDEGASGYVSAAAAAAAAGGDFDFGVDPNIDPELALALRVSMEEERARQEAAAKKAADEAGQKDKDGDTASASQETVARTTDKNAEPMDEDSALLDQAIAMSVGDVNMSEAADEDQDLALALQMSMSGEESSEATGAGNNLLGNQAFISSVLSSLPGVDPNDPAVKELLASLPDESKRTEEEESSSKKGEDEKK
# partner: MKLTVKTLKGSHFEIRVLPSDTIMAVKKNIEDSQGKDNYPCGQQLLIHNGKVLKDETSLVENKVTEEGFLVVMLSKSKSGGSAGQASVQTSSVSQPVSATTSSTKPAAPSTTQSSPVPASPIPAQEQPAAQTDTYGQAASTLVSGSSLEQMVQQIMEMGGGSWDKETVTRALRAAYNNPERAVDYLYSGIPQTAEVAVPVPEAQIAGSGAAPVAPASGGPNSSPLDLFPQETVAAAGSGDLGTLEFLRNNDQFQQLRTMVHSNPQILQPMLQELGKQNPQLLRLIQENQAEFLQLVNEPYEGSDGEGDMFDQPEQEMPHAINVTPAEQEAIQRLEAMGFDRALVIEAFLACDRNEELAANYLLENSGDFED
# B3: 26S proteasome non-ATPase regulatory subunit 4 (Homo sapiens), P55036 (parent)
# chain: B1 chain
# partner: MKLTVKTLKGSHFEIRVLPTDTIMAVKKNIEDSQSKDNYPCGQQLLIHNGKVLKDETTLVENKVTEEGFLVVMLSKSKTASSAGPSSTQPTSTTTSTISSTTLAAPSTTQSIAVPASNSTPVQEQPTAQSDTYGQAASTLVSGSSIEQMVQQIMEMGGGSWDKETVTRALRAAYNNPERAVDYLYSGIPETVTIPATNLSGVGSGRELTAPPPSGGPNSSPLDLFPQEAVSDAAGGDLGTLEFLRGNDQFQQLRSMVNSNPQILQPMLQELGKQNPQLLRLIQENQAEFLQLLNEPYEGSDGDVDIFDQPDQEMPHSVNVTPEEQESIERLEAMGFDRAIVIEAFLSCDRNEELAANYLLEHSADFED
# B4: 26S proteasome non-ATPase regulatory subunit 4 homolog (Arabidopsis thaliana (Mouse-ear cress)), P55034 (parent)
# chain: B2 chain
# B5: Ubiquitin domain-containing protein DSK2 (Saccharomyces cerevisiae), P48510 (parent)
# chain: MSLNIHIKSGQDKWEVNVAPESTVLQFKEAINKANGIPVANQRLIYSGKILKDDQTVESYHIQDGHSVHLVKSQPKPQTASAAGANNATATGAAAGTGATPNMSSGQSAGFNPLADLTSARYAGYLNMPSADMFGPDGGALNNDSNNQDELLRMMENPIFQSQMNEMLSNPQMLDFMIQSNPQLQAMGPQARQMLQSPMFRQMLTNPDMIRQSMQFARMMDPNAGMGSAGGAASAFPAPGGDAPEEGSNTNTTSSSNTGNNAGTNAGTNAGANTAANPFASLLNPALNPFANAGNAASTGMPAFDPALLASMFQPPVQASQAEDTRPPEERYEHQLRQLNDMGFFDFDRNVAALRRSGGSVQGALDSLLNGDV
# partner: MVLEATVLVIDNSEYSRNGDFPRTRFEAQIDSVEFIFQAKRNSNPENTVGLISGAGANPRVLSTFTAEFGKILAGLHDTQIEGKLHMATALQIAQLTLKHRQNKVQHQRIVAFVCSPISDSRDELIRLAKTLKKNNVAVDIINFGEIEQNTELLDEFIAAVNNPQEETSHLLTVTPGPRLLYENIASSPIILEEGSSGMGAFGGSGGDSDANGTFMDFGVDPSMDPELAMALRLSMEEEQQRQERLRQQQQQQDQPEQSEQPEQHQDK
# B6: DNA damage-inducible protein 1 (Saccharomyces cerevisiae), P40087 (parent)
# chain: MDLTISNELTGEIYGPIEVSEDMALTDLIALLQADCGFDKTKHDLYYNMDILDSNRTQSLKELGLKTDDLLLIRGKISNSIQTDAATLSDEAFIEQFRQELLNNQMLRSQLILQIPGLNDLVNDPLLFRERLGPLILQRRYGGYNTAMNPFGIPQDEYTRLMANPDDPDNKKRIAELLDQQAIDEQLRNAIEYTPEMFTQVPMLYINIEINNYPVKAFVDTGAQTTIMSTRLAKKTGLSRMIDKRFIGEARGVGTGKIIGRIHQAQVKIETQYIPCSFTVLDTDIDVLIGLDMLKRHLACVDLKENVLRIAEVETSFLSEAEIPKSFQEGLPAPTSVTTSSDKPLTPTKTSSTLPPQPGAVPALAPRTGMGPTPTGRSTAGATTATGRTFPEQTIKQLMDLGFPRDAVVKALKQTNGNAEFAASLLFQ
# B7: 26S proteasome regulatory subunit RPN10 (Saccharomyces cerevisiae), P38886 (parent)
# chain: B5 partner
# B8: Ubiquitin domain-containing protein DSK2 (Saccharomyces cerevisiae), P48510 (parent)
# chain: B5 chain
# B9: 26S proteasome regulatory subunit RPN10 (Saccharomyces cerevisiae), P38886 (parent)
# chain: B5 partner
# partner: B1 partner
# B10: 26S proteasome regulatory subunit RPN10 (Saccharomyces cerevisiae), P38886 (parent)
# chain: B5 partner
# partner: B3 partner
# B11: UV excision repair protein RAD23 (Saccharomyces cerevisiae), P32628 (parent)
# chain: MVSLTFKNFKKEKVPLDLEPSNTILETKTKLAQSISCEESQIKLIYSGKVLQDSKTVSECGLKDGDQVVFMVSQKKSTKTKVTEPPIAPESATTPGRENSTEASPSTDASAAPAATAPEGSQPQEEQTATTERTESASTPGFVVGTERNETIERIMEMGYQREEVERALRAAFNNPDRAVEYLLMGIPENLRQPEPQQQTAAAAEQPSTAATTAEQPAEDDLFAQAAQGGNASSGALGTTGGATDAAQGGPPGSIGLTVEDLLSLRQVVSGNPEALAPLLENISARYPQLREHIMANPEVFVSMLLEAVGDNMQDVMEGADDMVEGEDIEVTGEAAAAGLGQGEGEGSFQVDYTPEDDQAISRLCELGFERDLVIQVYFACDKNEEAAANILFSDHAD
# B12: Ubiquitin domain-containing protein DSK2b (Arabidopsis thaliana (Mouse-ear cress)), Q9SII8 (parent)
# chain: B1 partner
# Variants of: B1
# Details: with dsk2b_arath DSK2B
row,effect of a mutation on the interaction,Variant
1,with no effect,L216N;A217N;L218N;A219N;L220N
2,disrupting interaction strength,L216N;A217N;L218N;A219N;L220N;I287N;A288N;Y289N;A290N;M291N
3,disrupting interaction strength,I287N;A288N;Y289N;A290N;M291N

# Variants of: B2
# Details: with rd23b_arath RAD23B
row,effect of a mutation on the interaction,Variant
1,disrupting interaction strength,L286N;L287N;Q289N;A290D;L310N;A311N;L312N;A313D;L314N
2,with no effect,L286N;L287N;Q289N;A290D
3,with no effect,L226D;A227D;L228D;A229D;L230D
4,decreasing interaction strength,L226D;A227D;L228D;A229D;L230D;L286N;L287N;Q289N;A290D
5,disrupting interaction strength,L226D;A227D;L228D;A229D;L230D;L310N;A311N;L312N;A313D;L314N
6,disrupting interaction strength,L310N;A311N;L312N;A313D;L314N

# Variants of: B3
# Details: with rd23a_arath RAD23A
row,effect of a mutation on the interaction,Variant
1,disrupting interaction strength,I287N;A288N;Y289N;A290N;M291N
2,with no effect,L216N;A217N;L218N;A219N;L220N
3,disrupting interaction strength,L216N;A217N;L218N;A219N;L220N;I287N;A288N;Y289N;A290N;M291N

# Variants of: B4
# Details: with rd23b_human RAD23B
row,effect of a mutation on the interaction,Variant
1,disrupting interaction strength,L226D;A227D;L228D;A229D;L230D;L310N;A311N;L312N;A313D;L314N
2,with no effect,L226D;A227D;L228D;A229D;L230D
3,disrupting interaction strength,L286N;L287N;Q289N;A290D;L310N;A311N;L312N;A313D;L314N
4,disrupting interaction strength,L310N;A311N;L312N;A313D;L314N
5,decreasing interaction strength,L226D;A227D;L228D;A229D;L230D;L286N;L287N;Q289N;A290D
6,with no effect,L286N;L287N;Q289N;A290D

# Variants of: B4
# Details: with dsk2_yeast DSK2, P48510
row,effect of a mutation on the interaction,Variant
1,disrupting interaction strength,L226D;A227D;L228D;A229D;L230D
2,with no effect,L286N;L287N;Q289N;A290D;L310N;A311N;L312N;A313D;L314N
3,with no effect,L310N;A311N;L312N;A313D;L314N
4,with no effect,L286N;L287N;Q289N;A290D

# Variants of: B4
# Details: with ubql2_human UBQLN2, Q9UHD9
# Target sequence in this assay (Q9UHD9 whole entry): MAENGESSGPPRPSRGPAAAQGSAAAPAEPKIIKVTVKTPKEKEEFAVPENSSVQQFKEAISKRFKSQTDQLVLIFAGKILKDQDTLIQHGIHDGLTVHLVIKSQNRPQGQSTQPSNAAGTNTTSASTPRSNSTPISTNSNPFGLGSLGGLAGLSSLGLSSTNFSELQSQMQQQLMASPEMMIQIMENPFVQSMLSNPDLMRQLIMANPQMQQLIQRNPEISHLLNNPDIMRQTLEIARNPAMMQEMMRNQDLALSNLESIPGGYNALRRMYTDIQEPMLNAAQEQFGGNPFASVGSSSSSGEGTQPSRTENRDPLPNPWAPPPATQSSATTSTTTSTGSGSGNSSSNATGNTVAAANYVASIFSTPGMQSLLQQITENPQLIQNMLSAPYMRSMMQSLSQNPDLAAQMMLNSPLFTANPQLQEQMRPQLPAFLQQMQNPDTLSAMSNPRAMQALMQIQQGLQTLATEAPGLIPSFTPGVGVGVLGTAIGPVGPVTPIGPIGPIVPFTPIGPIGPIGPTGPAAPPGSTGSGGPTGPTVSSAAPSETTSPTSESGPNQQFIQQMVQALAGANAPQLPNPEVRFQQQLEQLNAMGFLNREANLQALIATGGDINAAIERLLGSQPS
row,effect of a mutation on the interaction,Variant
1,disrupting interaction strength,L226D;A227D;L228D;A229D;L230D
2,with no effect,L286N;L287N;Q289N;A290D;L310N;A311N;L312N;A313D;L314N
3,with no effect,L310N;A311N;L312N;A313D;L314N
4,with no effect,L286N;L287N;Q289N;A290D

# Variants of: B5
# Details: with rpn10_yeast RPN10, P38886
row,effect of a mutation on the interaction,Variant
1,disrupting interaction strength,L70A;V71A
2,with no effect,I45A
3,with no effect,L44A
4,with no effect,V71A
5,disrupting interaction strength,L44A;I45A
6,with no effect,L70A

# Variants of: B5
# Details: with rpn10_yeast RPN10, P38886
# Remark: another data set of the same source
row,effect of a mutation on the interaction,Variant
1,disrupting interaction,V71A
2,disrupting interaction,L70A

# Variants of: B6
# Details: with ubc_human UBC
# Target sequence in this assay (P0CG48 whole entry, looked up): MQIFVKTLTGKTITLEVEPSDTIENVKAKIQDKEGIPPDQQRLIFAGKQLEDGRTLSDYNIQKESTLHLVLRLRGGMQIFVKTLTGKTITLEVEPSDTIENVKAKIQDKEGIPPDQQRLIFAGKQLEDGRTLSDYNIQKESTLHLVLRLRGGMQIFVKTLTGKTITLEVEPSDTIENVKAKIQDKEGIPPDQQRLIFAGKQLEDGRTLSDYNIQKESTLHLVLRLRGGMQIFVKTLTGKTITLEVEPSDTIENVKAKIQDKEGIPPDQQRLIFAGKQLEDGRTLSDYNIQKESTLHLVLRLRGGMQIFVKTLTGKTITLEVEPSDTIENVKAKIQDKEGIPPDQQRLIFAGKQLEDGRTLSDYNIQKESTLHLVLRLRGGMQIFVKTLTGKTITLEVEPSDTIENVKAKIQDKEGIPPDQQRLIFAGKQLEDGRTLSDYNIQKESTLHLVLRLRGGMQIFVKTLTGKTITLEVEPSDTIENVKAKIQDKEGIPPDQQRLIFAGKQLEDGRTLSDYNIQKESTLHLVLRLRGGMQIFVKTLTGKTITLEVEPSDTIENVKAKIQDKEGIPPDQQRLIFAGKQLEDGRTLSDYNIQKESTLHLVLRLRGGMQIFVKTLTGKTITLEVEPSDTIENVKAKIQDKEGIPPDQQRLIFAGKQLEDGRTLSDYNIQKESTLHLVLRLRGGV
row,effect of a mutation on the interaction,Variant
1,disrupting interaction strength,L401A;G402A

# Variants of: B6
# Details: with ubc_human UBC
# Remark: another data set of the same source
# Target sequence in this assay (P0CG48 whole entry, looked up): as above
row,effect of a mutation on the interaction,Variant
1,decreasing interaction strength,L401A;G402A

# Variants of: B7
# Details: with dsk2_yeast DSK2, P48510
row,effect of a mutation on the interaction,Variant
1,disrupting interaction strength,L228N;A229N;M230N;A231N;L232N

# Variants of: B7
# Details: with ubql2_human UBQLN2, Q9UHD9
# Target sequence in this assay (Q9UHD9 whole entry): as the sequence (Q9UHD9 whole entry) above
row,effect of a mutation on the interaction,Variant
1,disrupting interaction strength,L228N;A229N;M230N;A231N;L232N

# Variants of: B8
# Details: with ubc_human UBC
# Target sequence in this assay (P0CG48 whole entry, looked up): as the sequence (P0CG48 whole entry, looked up) above
row,effect of a mutation on the interaction,Variant
1,disrupting interaction strength,M342A;G343A

# Variants of: B9
# Details: with dsk2b_arath DSK2B
row,effect of a mutation on the interaction,Variant
1,disrupting interaction strength,L228N;A229N;M230N;A231N;L232N

# Variants of: B10
# Details: with rd23a_arath RAD23A
row,effect of a mutation on the interaction,Variant
1,disrupting interaction strength,L228N;A229N;M230N;A231N;L232N

# Variants of: B11
# Details: with ubc_human UBC
# Target sequence in this assay (P0CG48 whole entry, looked up): as above
row,effect of a mutation on the interaction,Variant
1,disrupting interaction strength,M158A;G159A;Y160A;L367A;G368A;F369A
2,disrupting interaction strength,M158A;G159A;Y160A
3,with no effect,L367A;G368A;F369A

# Variants of: B11
# Details: with ubc_human UBC
# Remark: another data set of the same source
# Target sequence in this assay (P0CG48 whole entry, looked up): as above
row,effect of a mutation on the interaction,Variant
1,decreasing interaction strength,M158A;G159A;Y160A

# Variants of: B12
# Details: with rpn13_arath RPN13, O48726
# rpn13_arath RPN13, O48726, sequence (O48726 whole entry): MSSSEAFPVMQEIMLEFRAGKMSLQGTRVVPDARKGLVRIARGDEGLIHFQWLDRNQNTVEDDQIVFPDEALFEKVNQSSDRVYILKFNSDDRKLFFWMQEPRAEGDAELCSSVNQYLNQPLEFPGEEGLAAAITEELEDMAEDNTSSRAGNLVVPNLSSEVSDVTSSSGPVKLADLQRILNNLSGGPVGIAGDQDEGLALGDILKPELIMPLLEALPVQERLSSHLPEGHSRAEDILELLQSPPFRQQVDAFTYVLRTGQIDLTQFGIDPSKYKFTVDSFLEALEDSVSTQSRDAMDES
row,effect of a mutation on the interaction,Variant
1,disrupting interaction,I61A
